Laboratory results as given in article PMC4710668, “Bioactivation of food genotoxicants 5-hydroxymethylfurfural and furfuryl alcohol by sulfotransferases from human, mouse and rat: a comparative study” (Archives of Toxicology, 2014).

B1: rSult1c1 (Rattus norvegicus) (protein)
chain: MSLEKMKDLHLGEQDLQPETREVNGILMSKLMSDNWDKIWNFQAKPDDLLIATYAKAGTTWTQEIVDMIQNDGDVQKCQRANTYDRHPFIEWTLPSPLNSGLDLANKMPSPRTLKTHLPVHMLPPSFWKENSKIIYVARNAKDCLVSYYYFSRMNKMLPDPGTLGEYIEQFKAGKVLWGSWYDHVKGWWDVKDQHRILYLFYEDMKEDPKREIKKIAKFLEKDISEEVLNKIIYHTSFDVMKENPMANYTTLPSSIMDHSISPFMRKGMPGDWKNYFTVAQSEDFDEDYRRKMAGSNITFRTEI
notes: made in house; host or cells: Salmonella typhimurium TA1538 (cytosolic fraction, enzyme not purified)
B2: mSult1d1 (Mus musculus) (protein)
chain: MDNKLDVFRRELVDVEGIPLFWSIAEHWSQVESFEARPDDILISTYPKSGTTWVSEILDLIYNNGDAEKCKRDAIYKRVPFMELIIPGITNGVEMLNNMPSPRIVKTHLPVQLLPSSFWKNDCKIIYVARNAKDVVVSYYYFYQMAKIHPEPGTWEEFLEKFMAGQVSFGPWYDHVKSWWEKRKEYRILYLFYEDMKENPKCEIQKILKFLEKDIPEEILNKILYHSSFSVMKENPSANYTTMMKEEMDHSVSPFMRKGISGDWKNQFTVAQYEKFEEDYVKKMEDSTLKFRSEI
notes: as for B1
B3: hSULT1C2 (Homo sapiens) (protein)
chain: MALHDMEDFTFDGTKRLSVNYVKGILQPTDTCDIWDKIWNFQAKPDDLLISTYPKAGTTWTQEIVELIQNEGDVEKSKRAPTHQRFPFLEMKIPSLGSGLEQAHAMPSPRILKTHLPFHLLPPSLLEKNCKIIYVARNPKDNMVSYYHFQRMNKALPAPGTWEEYFETFLAGKVCWGSWHEHVKGWWEAKDKHRILYLFYEDMKKNPKHEIQKLAEFIGKKLDDKVLDKIVHYTSFDVMKQNPMANYSSIPAEIMDHSISPFMRKGAVGDWKKHFTVAQNERFDEDYKKKMTDTRLTFHFQF
notes: made in house; host or cells: Salmonella typhimurium TA1538 (cytosolic fraction, not purified)
B4: hSULT1A3 (Homo sapiens) (protein)
chain: MELIQDTSRPPLEYVKGVPLIKYFAEALGPLQSFQARPDDLLINTYPKSGTTWVSQILDMIYQGGDLEKCNRAPIYVRVPFLEVNDPGEPSGLETLKDTPPPRLIKSHLPLALLPQTLLDQKVKVVYVARNPKDVAVSYYHFHRMEKAHPEPGTWDSFLEKFMAGEVSYGSWYQHVQEWWELSRTHPVLYLFYEDMKENPKREIQKILEFVGRSLPEETMDFMVQHTSFKEMKKNPMTNYTTVPQELMDHSISPFMRKGMAGDWKTTFTVAQNERFDADYAEKMAGCSLSFRSEL
notes: as for B3
B5: rSult1a1 (Rattus norvegicus) (protein)
chain: MEFSRPPLVHVKGIPLIKYFAETIGPLQNFTAWPDDLLISTYPKSGTTWMSEILDMIYQGGKLEKCGRAPIYARVPFLEFKCPGVPSGLETLEETPAPRLLKTHLPLSLLPQSLLDQKVKVIYIARNAKDVVVSYYNFYNMAKLHPDPGTWDSFLENFMDGEVSYGSWYQHVKEWWELRHTHPVLYLFYEDIKENPKREIKKILEFLGRSLPEETVDSIVHHTSFKKMKENCMTNYTTIPTEIMDHNVSPFMRKGTTGDWKNTFTVAQNERFDAHYAKTMTDCDFKFRCEL
notes: as for B1
B6: mSult1a1 (Mus musculus) (protein)
chain: MEPLRKPLVPVKGIPLIKYFAETMEQLQNFTAWPDDVLISTYPKSGTNWMSEIMDMIYQGGKLDKCGRAPVYARIPFLEFSCPGVPPGLETLKETPAPRIIKTHLPLSLLPQSLLDQKIKVIYVARNAKDVVVSYYNFYKMAKLHPDPGTWESFLENFMDGKVSYGSWYQHVKEWWELRRTHPVLYLFYEDMKENPKREIKKILEFLGRSLPEETVDLIVHHTSFKKMKENPMANYTTIPTEVMDHTIYPFMRKGTIGDWKNTFTVAQSEHFDAHYAKLMTGCDFTFRCQI
notes: as for B1
B7: hSULT1A1 (Homo sapiens) (protein)
chain: MELIQDTSRPPLEYVKGVPLIKYFAEALGPLQSFQARPDDLLISTYPKSGTTWVSQILDMIYQGGDLEKCHRAPIFMRVPFLEFKAPGIPSGMETLKDTPAPRLLKTHLPLALLPQTLLDQKVKVVYVARNAKDVAVSYYHFYHMAKVHPEPGTWDSFLEKFMVGEVSYGSWYQHVQEWWELSRTHPVLYLFYEDMKENPKREIQKILEFVGRSLPEETVDFVVQHTSFKEMKKNPMTNYTTVPQEFMDHSISPFMRKGMAGDWKTTFTVAQNERFDADYAEKMAGCSLSFRSEL
notes: as for B3
B8: hSULT1A2 (Homo sapiens) (protein)
chain: MELIQDISRPPLEYVKGVPLIKYFAEALGPLQSFQARPDDLLISTYPKSGTTWVSQILDMIYQGGDLEKCHRAPIFMRVPFLEFKVPGIPSGMETLKNTPAPRLLKTHLPLALLPQTLLDQKVKVVYVARNAKDVAVSYYHFYHMAKVYPHPGTWESFLEKFMAGEVSYGSWYQHVQEWWELSRTHPVLYLFYEDMKENPKREIQKILEFVGRSLPEETVDLMVEHTSFKEMKKNPMTNYTTVRREFMDHSISPFMRKGMAGDWKTTFTVAQNERFDADYAKKMAGCSLSFRSEL
notes: as for B3

Experiments:
Assay in all cases: HMF sulfoconjugation assay
Settings in all cases: other: catalytic efficiency of HMF sulfoconjugation; pH 7.4
[1] = substrate: O=Cc1ccc(CO)o1; type: biochemical, rat
Experimental: (§1) Cytosolic fractions containing individual SULT forms were prepared from transgenic S. typhimurium TA1538. Table S1 in the Supplementary Material provides a summary of the thirty SULTs used in the current study together with references describing the cloning of the respective S. typhimurium TA1538 strains. The expressed SULT forms are denoted with the prefixes h, m and r for human, mouse and rat enzymes, respectively. Bacteria were grown in Luria Broth medium containing ampicillin (100 µg/ml) by stirring for 8 h at 200 revolutions/min at 37 °C. The bacterial suspensions were centrifuged at 5,000 g for 10 min. […] The protein concentrations were determined according to a bicinchoninic acid (BCA) assay protocol. […]
(§2) The reactions were conducted in mixtures of 100 µl containing 25–200 µg protein, 50 mM potassium phosphate buffer (pH 7.4), 5 mM MgCl2, 50 µM PAPS and different concentrations of HMF at 37 °C. Preliminary experiments ensured that measurements were recorded under ‘linear’ conditions, i.e., doubling of protein concentration or incubation time was doubling the amount of sulfate ester formed. […]
(§3) SMF concentrations of the clear supernatants were analyzed by UPLC-MS/MS. The protocol was adapted from the quantification of SMF in plasma samples of HMF-treated mice (Monien et al. [2009]). […]

[2] = substrate: O=Cc1ccc(CO)o1; type: biochemical, mouse
Experimental: as §1, §2, §3

[3] = substrate: O=Cc1ccc(CO)o1; type: biochemical, human
Experimental: Cytosolic fractions containing individual SULT forms were prepared from transgenic S. typhimurium TA1538. Table S1 in the Supplementary Material provides a summary of the thirty SULTs used in the current study together with references describing the cloning of the respective S. typhimurium TA1538 strains. The expressed SULT forms are denoted with the prefixes h, m and r for human, mouse and rat enzymes, respectively. Bacteria were grown in Luria Broth medium containing ampicillin (100 µg/ml) by stirring for 8 h at 200 revolutions/min at 37 °C. The bacterial suspensions were centrifuged at 5,000 g for 10 min. The sediments were washed twice with 25 ml of 10 mM potassium phosphate buffer (pH 7.4)/50 mM potassium chloride (KCP buffer) and centrifuged again. The pellets were taken up in 800 µl KCP buffer and sonicated thrice for 15 s with 30 s pauses in between. The soluble fraction was attained by centrifuging for 1 h at 100,000 g. The supernatants (in the following termed cytosolic preparations) were frozen at −80 °C. The protein concentrations were determined according to a bicinchoninic acid (BCA) assay protocol. The SULT concentrations in the cytosolic preparations were estimated after electrophoretic separation and immunodetection using inclusion bodies of different SULT forms as standards (Teubner et al. [2007]). The preparation of SULT inclusion bodies and the immunodetection of SULTs is described in the Supplementary Material, which also contains a representative immunoblot of different amounts of rSult1a1standard and a cytosolic preparation of S. typhimurium expressing rSult1a1 (Fig. S1).
as §2
SMF concentrations of the clear supernatants were analyzed by UPLC-MS/MS. The protocol was adapted from the quantification of SMF in plasma samples of HMF-treated mice (Monien et al. [2009]). In short, the supernatants were analyzed using a UPLC system (Waters) connected to a Quattro Premier XE tandem quadrupole mass spectrometer (Waters) using the negative electrospray ionization mode. […] The fragmentation reactions of SMF yielding two principal ions, the sulfate ion radical (m/z = 204.9 → 96.0) and the protonated sulfonate ion (m/z = 204.9 → 81.0) were monitored. […] SMF was quantified using an external calibration line that was linear in the concentration range of 1.0 nM (4 fmol/injection) to 2,500 (10 pmol/injection) SMF (r ^2 ≥ 0.99). […]

Protein	kcat/Km [3] [M⁻¹ s⁻¹]	also measured
B1		kcat/Km [1]: 0.12 M⁻¹ s⁻¹
B2		kcat/Km [2]: 4.8 M⁻¹ s⁻¹
B3	0.73	
B4	0.26	
B5		kcat/Km [1]: 5.3 M⁻¹ s⁻¹
B6		kcat/Km [2]: 15.8 M⁻¹ s⁻¹
B7	13.7	
B8	0.71	
